{"source": "paper doi:10.1101/2021.05.23.445325", "about": "(bioRxiv, 2021)", "binders": {"B1": {"name": "SRSF1 (amino-acids 11-196), 6His-tagged (domain or fragment, UniProt Q07955 11-196, looked up)", "chain": "AGNNDCRIYVGNLPPDIRTKDIEDVFYKYGAIRDIDLKNRRGGPPFAFVEFEDPRDAEDAVYGRDGYDYDGYRLRVEFPRSGRGTGRGGGGGGGGGAPRGRYGPPSRRSENRVVVSGLPPSGSWQDLKDHMREAGDVCYADVYRDGTGVVEFVRKEDMTYAVRKLDNTKFRSHEGETAYIRVKVDG"}}, "key": {"6His-NXF1 1-198": {"target": "T1, 6His-NXF1 1-198 (UniProt Q9UBU9 1-198)", "T1 sequence (looked up)": "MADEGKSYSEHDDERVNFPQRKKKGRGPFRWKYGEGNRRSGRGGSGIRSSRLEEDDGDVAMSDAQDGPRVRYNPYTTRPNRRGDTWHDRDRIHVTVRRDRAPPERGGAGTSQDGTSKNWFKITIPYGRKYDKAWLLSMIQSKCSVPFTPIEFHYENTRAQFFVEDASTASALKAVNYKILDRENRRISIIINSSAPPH", "assay": "ITC"}, "GST-NXF1:p15 complex": {"target": "T2, GST-NXF1:p15 complex (UniProt Q9UBU9 1-619; Q9UKK6 1-140)", "T2 sequence (looked up) 1": "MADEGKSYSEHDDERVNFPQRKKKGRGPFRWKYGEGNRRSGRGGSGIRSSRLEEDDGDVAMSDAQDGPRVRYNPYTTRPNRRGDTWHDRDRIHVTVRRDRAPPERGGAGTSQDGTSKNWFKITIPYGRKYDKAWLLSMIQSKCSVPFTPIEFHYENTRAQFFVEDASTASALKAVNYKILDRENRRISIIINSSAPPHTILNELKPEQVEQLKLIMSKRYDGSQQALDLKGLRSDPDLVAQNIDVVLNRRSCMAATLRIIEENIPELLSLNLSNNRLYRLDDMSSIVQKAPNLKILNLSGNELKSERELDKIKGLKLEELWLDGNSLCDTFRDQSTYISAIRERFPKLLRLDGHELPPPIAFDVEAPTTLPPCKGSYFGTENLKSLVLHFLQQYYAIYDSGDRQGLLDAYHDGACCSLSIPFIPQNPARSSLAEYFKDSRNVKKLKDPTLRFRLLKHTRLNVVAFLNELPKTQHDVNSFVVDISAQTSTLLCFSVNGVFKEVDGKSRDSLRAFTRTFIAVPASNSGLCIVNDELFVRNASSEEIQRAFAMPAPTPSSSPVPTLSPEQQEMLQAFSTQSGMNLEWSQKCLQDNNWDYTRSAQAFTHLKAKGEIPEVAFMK", "T2 sequence (looked up) 2": "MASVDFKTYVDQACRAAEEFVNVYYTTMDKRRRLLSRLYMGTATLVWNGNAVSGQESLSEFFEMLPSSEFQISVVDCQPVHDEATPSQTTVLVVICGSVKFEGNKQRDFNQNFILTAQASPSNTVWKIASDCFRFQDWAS", "assay": "pull-down"}}, "note": "No end group written: not given here.", "data": [{"binder": "PRSGRGTGRGGGGGGGGGAPRGRYGPPSRRSEYGRKKRRQRRR (peptide, UniProt Q07955 89-120, looked up)", "note": "[SRSF1 WT-CPP (SRSF1 aa89-120, V5 tag, TAT protein transduction domain)]", "values": [{"measurement": "fold increase of affinity against the wild-type SRSF1 peptide", "setting": "6His-NXF1 1-198", "result": 5, "unit": "fold"}]}, {"binder": "PASGAGTGRGGGGGGGGGAPRGRYGPPSAASE (peptide, UniProt Q07955 89-120, looked up, also: FAM label, position not given here)", "note": "[SRSF1 aa 89-120 m4-mutant peptide]", "values": [{"measurement": "fold reduction of affinity against SRSF1 WT-CPP", "setting": "6His-NXF1 1-198", "result": "~10", "unit": "fold"}]}, {"binder": "PRSGRGTGRGGGGGGGGGAPRGRYGPPSRRSE (peptide, UniProt Q07955 89-120, looked up, also: FAM label, position not given here)", "note": "[SRSF1 aa 89-120 wild-type peptide]", "values": [{"measurement": "binding result", "setting": "6His-NXF1 1-198", "result": "binds"}]}, {"binder": "B1", "values": [{"measurement": "binding result", "setting": "GST-NXF1:p15 complex", "result": "binds"}]}]}
